{"source": "patent US9963688B2", "about": "“Heavy metal resistant esterase” (AMERICAN UNIVERSITY OF CAIRO, priority 2013, dated 2018)", "molecules": {"B1": {"name": "EstATII: novel esterase from the lower convective layer of the Atlantis II brine pool, Red Sea; 314 amino acids, HSL family (protein)", "chain": "MSRYVDELYRNPGQPGLRALLRGMLKLLFRGLIRPPVPFAVQALVLRLLTLGMPLARGVTRSTEQIAGRPCMWHRPAAGGNGRVLLYLHGGAFVIGSPQTHRGICSALASRGQFDVCALDYRLAPAHPAPAACDDAVAAYQALLQRGYAPAQITLIGDSAGGNLVLVTAQKLAALKLPLPASLVCFSPVTDMTAEQLHAPAAGDPLLHPSWLDSARDAYCPAGLDRADPMVSPLFGQLKGLPPLLLQVGEDEVLLNDSLRLAEAARAADVAVRLERYEDLWHVFQAHAGLLHSADAALQRVVDFVNSAQTDSVS"}}, "type_in_all_cases": "biochemical", "key": {"[1]": {"test": "Effect of temperature on EstATII esterase activity (p-nitrophenyl butyrate hydrolysis)", "procedure": "(§1) Enzyme activity was determined by measuring the formation of p-nitrophenol (pNP) from the enzymatic hydrolysis of the p-nitrophenyl ester; p-nitrophenyl butyrate (Sigma-Aldrich). The reaction mixture contained p-nitrophenyl butyrate (pNPB) to a final concentration 0.1 mM and 50 mM Tris-HCl pH=8. In this study, the standard reaction was conducted at 65° C., initiated by the addition of EstATII and terminated by the addition of 10% SDS. Measurements were done at 410 nm using UV-spectrophotometer (Ultrospec 3100 pro, Amersham Biosciences) unless stated otherwise^20. All experiments were performed in triplicates. Substrate specificity of EstATII was determined using p-nitrophenol esters with varying side chain length. Short-chain fatty acid esters used were PNP-acetate (C2), PNP-butyrate (C4) and PNP-valerate (C5) and long-chain fatty acid esters used were PNP-decanoate (C10), PNP-dodecanoate C12, PNP-myristate (C14) and PNP-palmitate (C16). The optimum temperature for the activity of EstATII was determined at a temperature range 30-80° C. The optimum pH for the activity of EstATII was measured at a pH range (3-9.5) using the following buffers: 50 mM sodium acetate (pH 3-5.5), 50 mM sodium phosphate (pH 6, 7.5) and 50 mM Tris-HCL (pH 7.5-9.5). Formation of pNP was measured at 348 nm (the pH-independent isosbestic wavelength of pNP)^21. The effect of NaCl concentration on enzyme activity was measured at different NaCl concentrations (0-4.5 M) under standard assay conditions. To assess the effect of metal ions on enzyme activity, cations were added to a final concentration of 1 mM, and relative activity measured at the above-described standard conditions. The effect of detergents (at final concentrations 0.1 and 1%) and inhibitors (final concentration 1 mM) on enzyme activity was tested at the above-described standard assay conditions."}, "[2]": {"test": "Effect of pH on EstATII esterase activity (pNP formation measured at 348 nm)", "procedure": "as §1"}, "[3]": {"test": "Effect of NaCl concentration on EstATII activity", "conditions": "for Relative Activity: absence of NaCl defined as 100%", "procedure": "as §1"}, "[4]": {"test": "Effect of metal ions on EstATII activity", "procedure": "as §1"}, "[5]": {"test": "Effect of detergents, reducing and modifying agents on EstATII activity", "conditions": "standard assay conditions", "procedure": "as §1"}, "[6]": {"test": "Substrate specificity of EstATII", "procedure": "as §1"}, "[7]": {"conditions": "cation 1 mM, standard conditions"}}, "note": "Several values for one entry are separate records, joined by “and”; a condition that tells them apart may be missing. Equal values may be shown once.", "data": [{"molecule": "B1", "values": [{"measurement": "Relative Activity", "setting": "[1]; 30 °C, pNPB 0.1 mM, 50 mM Tris-HCl pH 8, 65 °C defined as 100%", "value": "56.3 ± 0.8", "unit": "%"}, {"measurement": "Relative Activity", "setting": "[1]; 35 °C, 65 °C defined as 100%", "value": "59.9 ± 1", "unit": "%"}, {"measurement": "Relative Activity", "setting": "[1]; 40 °C, 65 °C defined as 100%", "value": "65.3 ± 1.8", "unit": "%"}, {"measurement": "Relative Activity", "setting": "[1]; 45 °C, 65 °C defined as 100%", "value": "86.9 ± 0.9", "unit": "%"}, {"measurement": "Relative Activity", "setting": "[1]; 50 °C, 65 °C defined as 100%", "value": "90.9 ± 2", "unit": "%"}, {"measurement": "Relative Activity", "setting": "[1]; 55 °C, 65 °C defined as 100%", "value": "93.9 ± 1", "unit": "%"}, {"measurement": "Relative Activity", "setting": "[1]; 60 °C, 65 °C defined as 100%", "value": "95.9 ± 0.3", "unit": "%"}, {"measurement": "Relative Activity", "setting": "[1]; 65 °C, optimum condition (defined as 100%)", "value": "100 ± 0.2", "unit": "%"}, {"measurement": "Relative Activity", "setting": "[1]; 70 °C, 65 °C defined as 100%", "value": "91.6 ± 0.15", "unit": "%"}, {"measurement": "Relative Activity", "setting": "[1]; 75 °C, 65 °C defined as 100%", "value": "76.7 ± 0.3", "unit": "%"}, {"measurement": "Temp ° C. (apparent optimum temperature)", "setting": "[1]; range tested 30-80 °C", "value": 65, "unit": "°C"}, {"measurement": "Activity of the enzyme", "setting": "[1]; temperatures ranging from 45° C. to 75° C.", "value": "> 70", "unit": "%"}, {"measurement": "Relative Activity", "setting": "[2]; pH 3, 50 mM sodium acetate, pH 8.5 defined as 100%", "value": 0, "unit": "%"}, {"measurement": "Relative Activity", "setting": "[2]; pH 4, 50 mM sodium acetate, pH 8.5 defined as 100%", "value": 0, "unit": "%"}, {"measurement": "Relative Activity", "setting": "[2]; pH 5, 50 mM sodium acetate, pH 8.5 defined as 100%", "value": 0, "unit": "%"}, {"measurement": "Relative Activity", "setting": "[2]; pH 5.5, 50 mM sodium acetate, pH 8.5 defined as 100%", "value": "13.1 ± 0.2", "unit": "%"}, {"measurement": "Relative Activity", "setting": "[2]; pH 6, 50 mM sodium phosphate, pH 8.5 defined as 100%", "value": "38.5 ± 1.2", "unit": "%"}, {"measurement": "Relative Activity", "setting": "[2]; pH 6.5, pH 8.5 defined as 100%", "value": "43.2 ± 2", "unit": "%"}, {"measurement": "Relative Activity", "setting": "[2]; pH 7, pH 8.5 defined as 100%", "value": "81.5 ± 1", "unit": "%"}, {"measurement": "Relative Activity", "setting": "[2]; pH 7.5 (Na Phosphate), pH 8.5 defined as 100%", "value": "88 ± 1", "unit": "%"}, {"measurement": "Relative Activity", "setting": "[2]; pH 7.5 (Tris.HCl), pH 8.5 defined as 100%", "value": "66.1 ± 0.2", "unit": "%"}, {"measurement": "Relative Activity", "setting": "[2]; pH 8, 50 mM Tris-HCl, pH 8.5 defined as 100%", "value": "84.7 ± 1.1", "unit": "%"}, {"measurement": "Relative Activity", "setting": "[2]; pH 8.5, optimum condition (defined as 100%)", "value": "100 ± 3", "unit": "%"}, {"measurement": "Relative Activity", "setting": "[2]; pH 9, 50 mM Tris-HCl, pH 8.5 defined as 100%", "value": "60 ± 2", "unit": "%"}, {"measurement": "Activity of the enzyme", "setting": "[2]; pH lower than 5.5", "value": "No activity"}, {"measurement": "Activity of the enzyme", "setting": "[2]; pH=7-9", "value": "> 50", "unit": "%"}, {"measurement": "pH (highest activity)", "setting": "[2]; range tested pH 3-9", "value": 8.5}, {"measurement": "Relative Activity", "setting": "[3]; 0.5M Sodium Chloride", "value": "102.2 ± 2", "unit": "%"}, {"measurement": "Relative Activity", "setting": "[3]; 1M Sodium Chloride", "value": "99.9 ± 0.5", "unit": "%"}, {"measurement": "Relative Activity", "setting": "[3]; 1.5M Sodium Chloride", "value": "120 ± 1", "unit": "%"}, {"measurement": "Relative Activity", "setting": "[3]; 2M Sodium Chloride", "value": "122.9 ± 1", "unit": "%"}, {"measurement": "Relative Activity", "setting": "[3]; 2.5M Sodium Chloride", "value": "102.4 ± 1.8", "unit": "%"}, {"measurement": "Relative Activity", "setting": "[3]; 3M Sodium Chloride", "value": "73.8 ± 3.8", "unit": "%"}, {"measurement": "Relative Activity", "setting": "[3]; 3.5M Sodium Chloride", "value": "65.3 ± 4.6", "unit": "%"}, {"measurement": "Relative Activity", "setting": "[3]; 4M Sodium Chloride", "value": "53.8 ± 1", "unit": "%"}, {"measurement": "Relative Activity", "setting": "[3]; 4.5M Sodium Chloride", "value": "39.7 ± 1.7", "unit": "%"}, {"measurement": "NaCl concentration of highest activity", "setting": "[3]; range tested 0M-4.5M NaCl", "value": 2, "unit": "M"}, {"measurement": "Activity", "setting": "[3]; up to 4M NaCl", "value": "> 50", "unit": "%"}, {"measurement": "Enzyme activity", "setting": "[3]; up to 4.5M NaCl", "value": "maintained"}, {"measurement": "Relative activity with Ba^2+", "setting": "[4]; [7]", "value": "158% and 158.3 ± 2.2%"}, {"measurement": "Relative activity with Co^2+", "setting": "[4]; [7]", "value": "104% and 104 ± 2%"}, {"measurement": "Relative activity with Cu^2+", "setting": "[4]; [7]", "value": "94.8 ± 0.1", "unit": "%"}, {"measurement": "Relative activity with Fe^3+", "setting": "[4]; [7]", "value": "96.2 ± 0.7", "unit": "%"}, {"measurement": "Relative activity with Hg^2+", "setting": "[4]; [7]", "value": "60.9 ± 0.4", "unit": "%"}, {"measurement": "Relative activity with Mg^2+", "setting": "[4]; [7]", "value": "90.6 ± 3.6", "unit": "%"}, {"measurement": "Relative activity with Mn^2+", "setting": "[4]; [7]", "value": "111% and 111.8 ± 0.1%"}, {"measurement": "Relative activity with Zn^2+", "setting": "[4]; [7]", "value": "85.2 ± 4.4", "unit": "%"}, {"measurement": "Relative activity with Ca^2+", "setting": "[4]; cation 1 mM, standard conditions (65 °C, Tris-HCl pH 8, pNPB)", "value": "94.8 ± 3", "unit": "%"}, {"measurement": "Activity with the rest of the metal ions tested", "setting": "[4]; metal ions other than Barium, Manganese, Cobalt, 1 mM", "value": "above 60%"}, {"measurement": "Resistance to inhibition by all metal ions tested", "setting": "[4]; significantly inhibited = relative activity below 50%", "value": "showed resistance to inhibition by all metal ions tested"}, {"measurement": "Effect of EDTA chelation on enzyme activity", "setting": "[4]; with and without EDTA chelation", "value": "not affected"}, {"measurement": "Relative Activity", "setting": "[5]; CTAB 1 mM", "value": "13.1 ± 1.9", "unit": "%"}, {"measurement": "Relative Activity", "setting": "[5]; DTT 1 mM", "value": "78.9% and 78.9 ± 4.2%"}, {"measurement": "Relative Activity", "setting": "[5]; SDS 0.1%", "value": "6% and 6.1 ± 0.4%"}, {"measurement": "Relative Activity", "setting": "[5]; Triton X-100 0.1%", "value": "42.3% and 42.2 ± 1.1%"}, {"measurement": "Relative Activity", "setting": "[5]; Tween 20 0.1%", "value": "87.5% and 87.5 ± 2.3%"}, {"measurement": "Relative Activity", "setting": "[5]; Tween 20 1%", "value": "40.1% and 40.1 ± 0.9%"}, {"measurement": "Relative Activity", "setting": "[5]; Tween 80 1%", "value": "54.5% and 54.5 ± 0.7%"}, {"measurement": "Relative Activity", "setting": "[5]; β-mercaptoethanol 1 mM", "value": "117.9% and 117.9 ± 0.3%"}, {"measurement": "Activity towards short-chain fatty acid esters", "setting": "[6]; C2, C4 and C5 p-nitrophenol esters", "value": "active"}, {"measurement": "Activity towards long-chain fatty acid esters", "setting": "[6]; C10, C12, C14 and C16 p-nitrophenol esters", "value": "no activity"}, {"measurement": "Relative Activity", "setting": "[6]; substrate pNP-acetate (C2)", "value": "100 ± 3", "unit": "%"}, {"measurement": "Relative Activity", "setting": "[6]; substrate pNP-butyrate (C4)", "value": "61.9 ± 0.8", "unit": "%"}, {"measurement": "Relative Activity", "setting": "[6]; substrate pNP-decanoate (C10)", "value": 0, "unit": "%"}, {"measurement": "Relative Activity", "setting": "[6]; substrate pNP-dodecanoate (C12)", "value": 0, "unit": "%"}, {"measurement": "Relative Activity", "setting": "[6]; substrate pNP-myristate (C14)", "value": 0, "unit": "%"}, {"measurement": "Relative Activity", "setting": "[6]; substrate pNP-palmitate (C16)", "value": 0, "unit": "%"}, {"measurement": "Relative Activity", "setting": "[6]; substrate pNP-valerate (C5)", "value": "40.5 ± 1.2", "unit": "%"}]}]}
